# Results published in patent US7056679B2, “Target specific screening and its use for identifying target binders” (Antyra, Inc., priority 2001, dated 2006).
# No end group written: not given here.
# Key:
# DGI-2 = molecular target: T1, DGI-2 (Homo sapiens, UniProt Q15004); experiment: ELISA analysis of phage on DGI-2 polypeptide (specific binding); conditions: for DGI-2 (OD): binding to DGI-2 polypeptide (specific binding), phage ELISA units read at 405 nm; for DGI-2/LDH (OD): ratio of specific binding to non-specific binding
# T1 construct: encompassed the entire DGI-2 open reading frame (ORF); His-tag of vector pIVEX2.3-MCS (inferred from the vector and from the reverse primer lacking a stop codon); made in house; host or cells: cell-free in vitro translation (Rapid Translation System RTS, Roche; E. coli lysate)
# T1 sequence (Q15004 1-111): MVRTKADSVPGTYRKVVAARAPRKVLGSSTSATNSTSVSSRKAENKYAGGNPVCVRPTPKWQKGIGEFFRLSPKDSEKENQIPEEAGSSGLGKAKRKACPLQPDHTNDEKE
# How it was run: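 Recombinant DGI-2 from in vitro translation, LDH (non-specific) and controls were coated at 500 ng/well and blocked with 2% milk-PBS. Phage from individual clones bound for 2 hr at room temperature, then anti-M13-HRP with ABTS was read at 405 nm; a clone counted as positive at ≥2-fold over background.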
# [1] = tested on: lactate dehydrogenase (LDH); experiment: ELISA analysis of phage on LDH (irrelevant, non-specific target); type: binding; conditions: peptide binding to LDH polypeptide (non-specific binding); phage ELISA units read at 405 nm
# How it was run: (§1)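 Phage from picked clones (M13KO7 helper) bound 2 hr at room temperature to wells coated overnight at 4 °C with 500 ng/well anti-ETAG antibody or LDH, milk-blocked. Detection with HRP-anti-M13 (1:3000) and ABTS at 405 nm; positive when A405 ≥2-fold over background.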
# E-tag antibody = experiment: ELISA analysis of phage on antibody raised against ETAG (positive control); conditions: peptide binding to E-tag antibody; phage ELISA units read at 405 nm
# How it was run: as §1
Substance,DGI-2 (OD) (DGI-2),DGI-2/LDH (OD) (DGI-2),LDH (OD) [1],ETAG (OD) (E-tag antibody)
SRPGWCSRGTAWGFPGCSSS (DGI-2-20R-3-C4; listed as Escherichia coli),4.5 OD,4.2,1.1 OD,19.1 OD
SSVWATWGSDLRTFGSVGFL (DGI-2-20F-PP-C7; listed as Escherichia coli),3.0 OD,2.6,1.1 OD,11.0 OD
SVSGGGVFGTGGRVRHQVSG (DGI-2-20F-PP-C5; listed as Escherichia coli),2.2 OD,2.4,0.9 OD,33.9 OD
SVTISTSCRTGCPAGYLRRD (DGI-2-20F-PP-D2; listed as Escherichia coli),2.2 OD,3.1,0.7 OD,30.8 OD
SWACGLLWPGECGSQVARRG (DGI-2-20R-3-D127; listed as Escherichia coli),6.7 OD,6.4,1.0 OD,15.4 OD
SWRLWVSGELQGDRRKGLRG (DGI-2-20R-3-B7; listed as Escherichia coli),3.1 OD,3.0,1.0 OD,11.7 OD
SYRNFAMQSSLQVRRGSVVEDGTCWWEGVRCYSG (DGI-2-40F-4-F6; listed as Escherichia coli),3.2 OD,3.2,1.0 OD,13.5 OD
TANGHRYGGCGLWCKWMSGM (DGI-2-20R-4-E2; listed as Escherichia coli),2.7 OD,2.5,1.1 OD,18.2 OD
TCWIHRGLNVVRYSVNFGVRDARLTTQGMAWFPPGCGQGCV (TCWHRGLNVVRYSVNFGVRDARLTTQGMAWFPPGCGQGCV; DGI-2-40F-4-E62; listed as Escherichia coli),4.6 OD,4.5,1.0 OD,14.8 OD
TFTRDVAGPAVSFVRLHSWN (DGI-2-20F-PP-A9; listed as Escherichia coli),2.7 OD,2.3,1.2 OD,40.8 OD
TIDVARRFGYGWWDLWLDGD (DGI-2-20R-3-C3; listed as Escherichia coli),7.9 OD,7.0,1.1 OD,20.2 OD
TLVTEGNIKGSVKAHKDIGVWQLWWDWLSVTDSETVGRVSH (TLVTEGNKGSVKAHKDIGVWQLWWDWLSVTDSETVGRVSH; DGI-2-40F-3-D10; listed as Escherichia coli) [DGL-2-40F-3-D10],1.5 OD,1.7,0.9 OD,10.3 OD
TPDRCLIYSSIQCLLEYSARRGSAD (DGI-2-20C-3-C65; listed as Escherichia coli),1.8 OD,1.8,1.0 OD,7.4 OD
TPVAISIPAGVCSTSVCGRD (DGI-2-20F-PP-C11; listed as Escherichia coli),2.4 OD,2.6,0.9 OD,3.2 OD
TSCQVMFLAGQHLLSRVPRL (DGI-2-20R-3-B6; listed as Escherichia coli) [DGL-2-20R-3-B6],2.8 OD,2.7,1.0 OD,11.7 OD
TVKFQGVVQERSRIAGFRYCGDHAVSWGLAGCPALRDKLQ (DGI-2-40F-3-C424; listed as Escherichia coli),5.5 OD,5.2,1.1 OD,14.8 OD
"V#CR#LCRLCRFSMRCGGLSLVLGSAAAFFCEVFVGFCV (VCRLCRLCRFSMRCGGLSLVLGSAAAFFCEVFVGFCV; not fully specified (residues 1, 3); cysteine pairing not given here; also: TAA stop codons (#) after V1 and after R3; listed as Escherichia coli) [DGI-2-40F-4-E1130]",2.9 OD,3.2,0.9 OD,8.3 OD
VAFGEQJRVAMAGTLWQRWR (VAFGEQIRVAMAGTLWQRWR; not fully specified; non-natural residue J; DGI-2-20R-3-D5; listed as Escherichia coli),1.5 OD,1.4,1.1 OD,8.5 OD
VCGQRVARMQLNKTIRKLDS (DGI-2-20F-PP-A6; listed as Escherichia coli),3.1 OD,2.8,1.1 OD,35.1 OD
VCSGGKGTWLEIPDRVRSST (DGI-2-20F-PP-A22; listed as Escherichia coli),3.3 OD,3.1,1.0 OD,44.1 OD
VGHLLSRCAHHSPGMGASPYG (DGI-2-20F-PP-B11; listed as Escherichia coli),2.6 OD,2.7,1.0 OD,40.8 OD
VGQSSGDARPLANLFVFPFV (DGI-2-20F-PP-F12; listed as Escherichia coli),2.1 OD,2.3,0.9 OD,47.6 OD
VHSQGRMWAIPGLRGGTGAS (DGI-2-20R-3-D7; listed as Escherichia coli),5.2 OD,5.3,1.0 OD,18.7 OD
VLCLE#ALGLSGLGWRVVVGP (VLCLEALGLSGLGWRVVVGP; DGI-2-20F-PP-G4; listed as Escherichia coli),2.5 OD,2.2,1.1 OD,25.6 OD
VLGADAGMIWFMDGCGIRCR (DGI-2-20R-4-E6; listed as Escherichia coli),7.0 OD,7.0,1.0 OD,19.1 OD
VLQRSLWKDWVDGVMHGGGSRGV (DGI-2-20R-3-A7; listed as Escherichia coli),4.8 OD,5.1,0.9 OD,13.9 OD
VQFAMTLSSRLWQHARHPLTDDAPPTVSFGTRRETLAGKA (DGI-2-40F-3-D3; listed as Escherichia coli),0.9 OD,1.1,0.9 OD,0.9 OD
VQSGRDLGGLLRGGTGTEASP (DGI-2-20F-PP-D3; listed as Escherichia coli),2.2 OD,2.4,0.9 OD,15.0 OD
VRAVYSRDAYNEVGRWMRVGI (DGI-2-20F-PP-D9; listed as Escherichia coli),2.9 OD,2.9,1.0 OD,9.0 OD
VSFAHDWGRWWYQWEVG (DGI-2-20R-4-G22; listed as Escherichia coli),7.9 OD,6.5,1.2 OD,12.9 OD
